Test results: US20260176378A1 (DYAX, published 2026)
Changes are numbered by the printed parent chain.

Target: T1, human plasma kallikrein (human, UniProt P03952 20-390; P03952 391-638)
T1 construct: two disulfide-linked chains; NP_000883.2; also called pKal; hpKal
Assay: ELISA, biotinylated pKal signal over streptavidin background

T1 sequence (P03952 20-390 limits assumed, chain 1 of 2): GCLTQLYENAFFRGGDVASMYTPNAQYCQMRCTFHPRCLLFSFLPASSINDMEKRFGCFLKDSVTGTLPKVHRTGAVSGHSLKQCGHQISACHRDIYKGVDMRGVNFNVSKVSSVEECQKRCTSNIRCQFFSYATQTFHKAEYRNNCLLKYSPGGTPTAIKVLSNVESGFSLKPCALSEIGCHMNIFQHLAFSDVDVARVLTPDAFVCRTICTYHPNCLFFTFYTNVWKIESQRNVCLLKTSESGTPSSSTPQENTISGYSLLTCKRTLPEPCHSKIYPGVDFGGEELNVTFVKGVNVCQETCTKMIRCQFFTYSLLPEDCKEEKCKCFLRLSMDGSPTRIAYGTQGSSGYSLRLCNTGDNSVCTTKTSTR
T1 sequence (P03952 391-638 limits assumed, chain 2 of 2): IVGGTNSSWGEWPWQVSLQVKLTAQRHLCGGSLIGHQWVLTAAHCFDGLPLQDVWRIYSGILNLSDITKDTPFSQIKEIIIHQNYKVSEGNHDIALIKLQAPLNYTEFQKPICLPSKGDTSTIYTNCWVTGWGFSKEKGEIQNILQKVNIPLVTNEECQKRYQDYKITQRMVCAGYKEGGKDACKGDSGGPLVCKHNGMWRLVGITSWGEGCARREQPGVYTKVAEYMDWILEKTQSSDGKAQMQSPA

B1: M77-H04 (Fab, V domains shown)
VH: EVQLLESGGGLVQPGGSLRLSCAASGFTFSYYTMIWVRQAPGKGLEWVSGIRSSGGGTRYADSVKGRFTISRDNSKNTLYLQMNSLRAEDTAVYYCAKDGSRYSYGSIYYYYGMDAWGQGTTVTVSS
VL: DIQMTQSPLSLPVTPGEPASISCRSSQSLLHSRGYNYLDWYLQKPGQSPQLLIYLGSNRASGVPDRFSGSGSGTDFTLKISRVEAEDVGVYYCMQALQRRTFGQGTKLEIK
ELISA (T/B): 7.6

B2: M28-F01 (Fab, V domains shown)
VH: EVQLLESGGGLVQPGGSLRLSCAASGFTFSVYLMHWVRQAPGKGLEWVSGISPSGGYTQYADSVKGRFTISRDNSKNTLYLQMNSLRAEDTAVYYCARPGGLDAFDIWGQGTMVTVSS
VL: DIQMTQSPSSLSASVGDRVTITCRASQSINTYLNWYQQKPGKAPKVLIHAASTLESGVPSRFSGSGSGTDFTLTISSLQPEDFATYYCQQSYSTPPTFGQGTKVEIK
ELISA (T/B): 1.5

B3: M77-C07 (Fab, V domains shown)
VH: EVQLLESGGGLVQPGGSLRLSCAASGFTFSLYIMGWVRQAPGKGLEWVSGIYPSGGFTMYADSVKGRFTISRDNSKNTLYLQMNSLRAEDTAVYYCARESSGVAAPDYWGQGTLVTVSS
VL: B2 VL with S10T, S28N, N30S, T31S, V46L, H49Y, T53S, E55Q, Y87S, P96R
ELISA (T/B): 16.1

B4: M76-F02 (Fab, V domains shown)
VH: B2 VH with V31L, L33D, H35N, Y57Q, Q59M, P99Q, G100P, G101M, L102I, D103S
VL: DIQMTQSPSSLSASVGDRVTITCRASQTIDNYLHWYQQKPGKAPKVLIHDASSLQSGVPPRFSGSGSGTDFTLTISSLQPEDFATYYCQQSYDTPQYTFGQGTKLEIK
ELISA (T/B): 6.4

B5: M29-C07 (Fab, V domains shown)
VH: EVQLLESGGGLVQPGGSLRLSCAASGFTFSGYDMMWVRQAPGKGLEWVSVISSSGGNTAYADSVKGRFTISRDNSKNTLYLQMNSLRAEDTAVYYCARESSGLYYFDYWGQGTLVTVSS
VL: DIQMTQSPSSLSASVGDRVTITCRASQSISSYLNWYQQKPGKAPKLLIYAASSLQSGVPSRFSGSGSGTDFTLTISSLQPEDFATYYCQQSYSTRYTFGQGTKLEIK
ELISA (T/B): 5.2

B6: M74-A07 (Fab, V domains shown)
VH: EVQLLESGGGLVQPGGSLRLSCAASGFTFSQYLMMWVRQAPGKGLEWVSSIYPSGGYTSYADSVKGRFTISRDNSKNTLYLQMNSLRAEDTAVYYCARVSTAVADNDYWGQGTLVTVSS
VL: DIQMTQSPSSLSASVRDRVTITCRTSQNINTYLNWYYQAPGRAPKLLIFGVSSLHRGVSSRFSGSGDGTEFTLTISSLQPEDIGTYFCQQSYSSPWTFGQGTKVEIK
ELISA (T/B): 8.6

B7: M6-D03 (Fab, V domains shown)
VH: B6 VH with Q31K, L33F, M35G, S50V, Y52G, P53S, Y57W
VL: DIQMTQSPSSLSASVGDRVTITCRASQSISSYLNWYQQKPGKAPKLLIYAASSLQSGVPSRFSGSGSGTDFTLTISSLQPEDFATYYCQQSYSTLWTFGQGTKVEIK
ELISA (T/B): 15.5

B8: M6-A06 (Fab, V domains shown)
VH: B6 VH with Q31L, L33Q, M35T, S50G, Y52W, Y57F, S59D
VL: DIQMTQSPSSLSASVGDSVTISCRASQSISMYLNWYQHKPGKAPKLLIYGTSSLQSGVPSRFSGSGPGGTDFTLTISSLQPEDFATYYCQQSYSAPWTFGQGTKVEIK
ELISA (T/B): 11.7

B9: M29-G08 (Fab, V domains shown)
VH: EVQLLESGGGLVQPGGSLRLSCAASGFTFSYYHMWWVRQAPGKGLEWVSGISPSGGFTFYADSVKGRFTISRDNSKNTLYLQMNSLRAEDTAVYYCARDYYYDSSGYSPLGYWGQGTLVTVSS
VL: DIQMTQSPATLSASPGETVTLSCRASQNIGNDVAWYRQRPGQAPRLLIHHASTRAYGIPARLRGSGSATEFTLTITSLEPEDFAIYYCQQFYDWPAHTFALGTRLEIKR
ELISA (T/B): 40.4

B10: M76-G06 (Fab, V domains shown)
VH: B3 VH with L31G, G35H, G50W, F57W, M59E, E99D, S100A, S101P, A104G, P106I
VL: DIQMTQSPSSLSASVRDRVTITCRASQSISTYLNWYQQKPGEAPKLLVFAASSLQSGVPSRFSGSGSGTDFTLSISSLQPEDFATYYCQQSYSTPHTFGQGAKVEIK
ELISA (T/B): 11.8

B11: M6-A08 (Fab, V domains shown)
VH: EVQLLESGGGLVQPGGSLRLSCAASGFTFSPYPMQWVRQAPGKGLEWVSSISSSGGMTEYADSVKGRFTISRDNSKNTLYLQMNSLRAEDTAVYYCARDDYGGKGGAFDIWGQGTMVTVSS
VL: DIQMTQSPSSLSASVGDRVTITCRASQRISFYLNWFQQKPGKAPNLLIYGASSLQSGVPSRFSGSGSGTDFTLTISSLQPKDFGTYYCQQTFSTPNTFGQGTKLEIK
ELISA (T/B): 23.4

B12: M28-F07 (Fab, V domains shown)
VH: EVQLLESGGGLVQPGGSLRLSCAASGFTFSDYTMYWVRQAPGKGLEWVSSIVPSGGHTLYADSVKGRFTISRDNSKNTLYLQMNSLRAEDTAVYYCAKDHLSSWYGGFFDYWGQGTLVTVSS
VL: DIQMTQSPSSVSASVGDRVTITCRASQGISSWLAWYQQKPGKAPKLLIYATSGLQSGVPSRFSGSGSGTDFTLTISSLQPEDFATYYCQQAKSFPLTFGGGTRVEIK
ELISA (T/B): 33

B13: M29-E02 (Fab, V domains shown)
VH: EVQLLESGGGLVQPGGSLRLSCAASGFTFSRYPMMWVRQAPGKGLEWVSVIYPSGGDTFYADSVKGRFTISRDNSKNTLYLQMNSLRAEDTAVYYCASGDDYLWEAAVYWGQGTLVTVSS
VL: QSVLTQPPSVSEAPRQRVTISCSGSSSNIGNNAVSWYQQLPGKAPKLLIYYDDLLPSGVSDRFSGSKSGTSASLAISGLRSEDEADYYCAAWDDSLNGFVFGTGTKVTVL
ELISA (T/B): 2

B14: M76-G02 (Fab, V domains shown)
VH: B3 VH with I33A, G35W, G50Y, Y52S, P53S, M59S, E99Y, S100R, S101V, P106T
VL: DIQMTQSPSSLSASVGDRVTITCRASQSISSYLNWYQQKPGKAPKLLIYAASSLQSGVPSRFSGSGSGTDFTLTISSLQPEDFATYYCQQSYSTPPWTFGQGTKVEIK
ELISA (T/B): 10.3

B15: M76-H02 (Fab, V domains shown)
VH: EVQLLESGGGLVQPGGSLRLSCAASGFTFSMYWMQWVRQAPGKGLEWVSYIYPSGGPTKYADSVKGRFTISRDNSKNTLYLQMNSLRAEDTAVYYCARPSGSYGDAFDIWGQGTMVTVSS
VL: DIQMTQSPSSLSASEGDRVTITCRASQDISVYLNWYQMKSGKAPKLLIYGGASLQSGVPARFSGSGYGTDFTLTITDLRPEDFATYYCQQSYSLPFTFGGGTKVEIK
ELISA (T/B): 13.4

B16: M29-D10 (Fab, V domains shown)
VH: EVQLLESGGGLVQPGGSLRLSCAASGFTFSWYPMYWVRQAPGKGLEWVSSIGSSGGPTPYADSVKGRFTISRDNSKNTLYLQMNSLRAEDTAVYYCARWADYGGSLDYWGQGTLVTVSS
VL: DIQMTQSPSSLSASVGDTVSITCRASQSITIYLNWYQHKPGKAPNLLIYGASNLHSGVPSRFSGSGSGTDFTLTISSLQPEDFATYYCQQSYDTPLTFGGGTKVEIK
ELISA (T/B): 23.6

B17: M29-G10 (Fab, V domains shown)
VH: EVQLLESGGGLVQPGGSLRLSCAASGFTFSFYKMIWVRQAPGKGLEWVSSISSSGGSTQYADSVKGRFTISRDNSKNTLYLQMNSLRAEDTAVYYCARDRVDLGYLDYWGQGTLVTVSS
VL: DIQMTQSPSSLSSSVGDSATITCRASQSISIYLNWYQQKPGKAPKILIYGASQLESGVPSRFSGSGSGTDFTLTVSGLQPEDFATYWCQQSYNVPYTFGQGTKLEIK
ELISA (T/B): 16.4
